Assay results: PMC9966725, “Preclinical Evaluation of a Lead Specific Chelator (PSC) Conjugated to Radiopeptides for ^203Pb and ^212Pb-Based Theranostics” (Pharmaceutics, 2023)

Experiments:
[1] = Stability of radiopeptide in saline, radio-HPLC; type: physicochemical; settings: 24 h storage in saline, C18, fractions counted on gamma counter
Protocol: Using [^203Pb]Pb-PSC-PEG-T surrogate, radiochemical stability of [^203Pb]Pb-PSC-PEG-T in saline was monitored for 72 h. Similarly, single species of [^212Bi]Bi-PSC-PEG-T in saline were also monitored for 5 h (five half-lives of ^212Bi). [^203Pb]Pb-PSC-PEG-T and [^212Bi]Bi-PSC-PEG-T were radiolabeled and purified on Sep-Pak® C18 SPE columns as previously described. Next, 7.4 MBq mL^−1 of purified [^203Pb]Pb-PSC-PEG-T and [^212Bi]Bi-PSC-PEG-T were stored in saline supplemented with 5% EtOH and 1 mg mL^−1 sodium ascorbate for 72 h and 5 h, respectively, followed by analysis of radiochemical purity by radio-iTLC method. Then, radiochemical stability of [^212Pb]Pb-PSC-PEG-T and progeny [^212Bi]Bi-PSC-PEG-T were determined by radio-iTLC after storage of 37 MBq mL^−1 radiolabeled [^212Pb]Pb-PSC-PEG-T in saline for 24 h, and further confirmed by radio-HPLC analysis. In human serum, radiochemical stability of [^212Pb]Pb-PSC-PEG-T and progeny [^212Bi]Bi-PSC-PEG-T were determined after incubation of 3.7 MBq [^212Pb]Pb-PSC-PEG-T in 1 mL human serum at 37 °C for 24 h. In addition, metabolic stability of Pb-PSC-PEG-T radiopeptide in serum was determined by radio-HPLC after incubating [^203Pb]Pb-PSC-PEG-T surrogate in human serum for 55 h (five half-lives of ^212Pb). […] The supernatant was collected and analyzed on radio-HPLC. […]

[2] = test system: SSTR2-positive AR42J xenografts; test: in vivo; parameters: species or system mice; settings: female, athymic nude, mouse, iv, 74 kBq, 1 h
Protocol: (§1) Biodistribution of [^212Pb]Pb-PSC-PEG-T and progeny ^212Bi^3+ was determined in two animal models, including female naïve CD-1Elite mice and athymic mice bearing AR42J tumor xenografts. SSTR2-positve AR42J cells were cultured in 10% Minimum Essential Medium (MEM) supplemented with 10% fetal bovine serum (FBS), 100 units mL^−1 penicillin, and 100 units mL^−1 streptomycin 37 °C in a humidified atmosphere (5% CO2). All animal studies were performed in accordance with the Guide for the Care and Use of Laboratory Animals, according to protocols approved by the University of Iowa Animal Care and Use Committee (protocol#1122453 approved on 16 February 2022). Xenograft of AR42J tumor was developed by subcutaneous (s.c.) injection of 1 × 10^6 cells at the left shoulder of female athymic nude mice. [^212Pb]Pb-PSC-PEG-T was radiolabeled and purified as described above, and kept at room temperature away from light for 3 h before injection, to allow progeny ^212Bi to approach equilibrium before injection. Upon assay, 74 kBq [^212Pb]Pb-PSC-PEG-T (peptide mass = 5–10 pmole) were injected via tail vein (n = 2–3). Animals were euthanized at designated time points (1, 5, 24 h for naïve CD-1 mice; 1, 4 h for AR42J-bearing mice). Organs of interest and tumors were collected, rinsed, and weighed. Radioactivity of ^212Pb and ^212Bi in each sample was measured on an automated gamma counter by 238 keV and 583 keV gamma peaks, respectively. ^212Bi was purified from the generator eluate on RE2 resin and collected in pH = 6 sodium acetate as described above. Biodistribution of free ^212Bi in normal organs was determined at 2 h post injection of 74 kBq ^212Bi in naïve female CD-1 Elite mice (n = 3). Radioactivity in samples was decay corrected and data were expressed as percent injected dose per gram of tissue (%ID/g). SPECT imaging of [^203Pb]Pb-PSC-PEG-T and [^212Pb]Pb-PSC-PEG-T in female athymic nude mice bearing AR42J xenograft (n = 2) was conducted on Bioemtech Gamma-Eye Imaging system (Bioemtech, Athens, Greece) with 30–500 keV dynamic range and 1.9 mm spatial resolution. Whole body 2D-SPECT imaging of [^203Pb]Pb-PSC-PEG-T and [^212Pb]Pb-PSC-PEG-T were collected at 3 h and 24 h (n = 2) post injection of 1.8 MBq [^203Pb]Pb-PSC-PEG-T (52 MBq nmole^−1) and 3.7 MBq [^212Pb]Pb-PSC-PEG-T (20 MBq nmole^−1). SPECT images were generated by acquiring ten 30 s projections. Imaging data were reconstructed and normalized to percent of injected dose (%ID) in tumor and kidneys based on region of interest (ROI) analysis on VISUAL-Eyes software (Bioemtech, Athens, Greece). Animals were euthanized after conclusion of the study at 24 h post injection. Tumor xenografts and organs of interest were collected and weighed. Radioactivity of ^203Pb or ^212Pb was determined on automated gamma counter and normalized to %ID/g.

AR42J xenograft = test: in vivo; parameters: species or system mice; settings: female, athymic nude, mouse, 24 h
Protocol: as §1

[3] = Radiochemical stability of radiometal complex in saline, radio-iTLC; type: physicochemical; settings: 37 MBq mL^-1 in saline at room temperature for 24 h, regardless of PSC-PEG-T concentration (1, 3, 5 µM)
Protocol: Using [^203Pb]Pb-PSC-PEG-T surrogate, radiochemical stability of [^203Pb]Pb-PSC-PEG-T in saline was monitored for 72 h. Similarly, single species of [^212Bi]Bi-PSC-PEG-T in saline were also monitored for 5 h (five half-lives of ^212Bi). [^203Pb]Pb-PSC-PEG-T and [^212Bi]Bi-PSC-PEG-T were radiolabeled and purified on Sep-Pak® C18 SPE columns as previously described. Next, 7.4 MBq mL^−1 of purified [^203Pb]Pb-PSC-PEG-T and [^212Bi]Bi-PSC-PEG-T were stored in saline supplemented with 5% EtOH and 1 mg mL^−1 sodium ascorbate for 72 h and 5 h, respectively, followed by analysis of radiochemical purity by radio-iTLC method. Then, radiochemical stability of [^212Pb]Pb-PSC-PEG-T and progeny [^212Bi]Bi-PSC-PEG-T were determined by radio-iTLC after storage of 37 MBq mL^−1 radiolabeled [^212Pb]Pb-PSC-PEG-T in saline for 24 h, and further confirmed by radio-HPLC analysis. In human serum, radiochemical stability of [^212Pb]Pb-PSC-PEG-T and progeny [^212Bi]Bi-PSC-PEG-T were determined after incubation of 3.7 MBq [^212Pb]Pb-PSC-PEG-T in 1 mL human serum at 37 °C for 24 h. In addition, metabolic stability of Pb-PSC-PEG-T radiopeptide in serum was determined by radio-HPLC after incubating [^203Pb]Pb-PSC-PEG-T surrogate in human serum for 55 h (five half-lives of ^212Pb). Following the incubation, serum protein was precipitated in ice-cold methanol (1:1.5 v/v) for 10 min, followed by centrifugation at 10,000× g for 10 min. The supernatant was collected and analyzed on radio-HPLC.
In radio-iTLC analysis, 0.1 M NaOAc with 1 mM DTPA was used as mobile phase for ^203Pb, ^212Pb, ^212Bi. Citric acid (0.1 M) was used as mobile phase for ^68Ga. Upon radio-iTLC analysis, 2 µL aliquot sample was spotted on the radio-iTLC strips (2 × 10 cm) and developed in the mobile phase. Radioactivity of ^203Pb and ^212Pb was measured on NaI(Tl) gamma spectroscope using 279 keV and 238 keV gamma peaks, respectively. Radioactivity of ^212Bi on radio-iTLC was measured on the Ludlum Model 3030 α-particle counter. Radio-HPLC analysis was conducted on Agilent 1260 (Agilent, Santa Clara, CA, USA). Binary mobile phases were applied to run 5–60% phase B (acetonitrile) over phase A (0.1% TFA in water) over 10 min on ZORBAX RR Eclipse XDB-C18 column (4.6 × 150 mm, 5 µm). Radioactivity of ^203Pb was measured on flow-through 105S-1 single channel radiation detector (Corroll & Ramsey, Fort Collins, CO, USA). To measure ^212Pb and ^212Bi activity on radio-HPLC, eluate was collected every 10 s on a HPLC fraction collector. Radioactivity of ^212Pb and ^212Bi in each collected eluate was measured on Cobra II automated gamma counter using 238 keV and 583 keV gamma peaks immediately after collection.

[4] = after β decay of ^212Pb; cited from earlier work
Source text: Potential ambiguity in these predictions arises due to the nature of the ^212Pb decay series. The decay of ^212Pb to ^212Bi might lead to a decoupling of the progeny ^212Bi from the chelator, adding uncertainty to the biodistribution of radioactivity, especially the α-emitters (i.e., ^212Bi, ^212Po). Using particle and heavy ion transport code system (PHITS) modeling, we have shown that α-particles contribute to more than 90% of dose deposition in 10 µm diameter single cells and 1 cm diameter micro-metastasis, while the dose from β-particles becomes more significant ...

SMILES | radiochemical purity (radiometal remained incorporated as radiopeptide) [1] | accumulation in adrenal glands [2] | accumulation in bones [2] | accumulation in kidneys [2] | accumulation in liver [2] | accumulation in spleen [2] | activity in lungs (AR42J xenograft) | ^212Pb remained in PSC-PEG-T [3] | ^212Bi^3+ released from chelator [4]
C[C@@H](O)[C@@H]1NC(=O)[C@H](CCCCN)NC(=O)[C@@H](Cc2c[nH]c3ccccc23)NC(=O)[C@H](Cc2ccc(O)cc2)NC(=O)[C@@H](NC(=O)[C@@H](Cc2ccccc2)NC(=O)CCOCCOCCNC(=O)CN2CCN(CC(=O)O)CCN(CC(N)=O)CCN(CC(=O)O)CC2)CSSC[C@@H](C(=O)N[C@H](CO)[C@@H](C)O)NC1=O [[^212Pb]Pb-PSC-PEG-T] [metal not drawn] | > 95% | 3.6 %ID/g | 1.4 %ID/g | 28.1 %ID/g | 0.8 %ID/g | 0.6 %ID/g | 0.3 %ID/g | More than 99.6% | 
O=C(O)CN1CCN(CC(=O)O)CCN(CC(=O)O)CCN(CC(=O)O)CC1 [DOTA, 1,4,7,10-tetraazacyclododecane-1,4,7,10-tetraacetic acid] |  |  |  |  |  |  |  |  | approximately 36%
